Changes are numbered by the printed parent chain. Numbers in names are those of the source.
B1: uridylylated human galactose 1-phosphate uridylyltransferase (UMP-hGALT) (enzyme, UniProt P07902 1-379, looked up)
chain: MSRSGTDPQQRQQASEADAAAATFRANDHQHIRYNPLQDEWVLVSAHRMKRPWQGQVEPQLLKTVPRHDPLNPLCPGAIRANGEVNPQYDSTFLFDNDFPALQPDAPSPGPSDHPLFQAKSARGVCKVMCFHPWSDVTLPLMSVPEIRAVVDAWASVTEELGAQYPWVQIFENKGAMMGCSNPHPHCQVWASSFLPDIAQREERSQQAYKSQHGEPLLMEYSRQELLRKERLVLTSEHWLVLVPFWATWPYQTLLLPRRHVRRLPELTPAERDDLASIMKKLLTKYDNLFETSFPYSMGWHGAPTGSEAGANWDHWQLHAHYYPPLLRSATVRKFMVGYEMLAQAQRDLTPEQAAERLRALPEVHYHLGQKDRETATIA
modifications: UMP covalently bound to His186 (uridylylated)
notes: human galactose 1-phosphate uridylyltransferase (GALT, EC 2.7.7.12), full length, from a cDNA clone with the p.Asn314Asp polymorphism; Crystallised after pre-incubation with 5 mM UDP-Glc; for SAXS made by overnight incubation with 2 mM UDP-glucose; also called UMP-GALT; uridylylated hGALT; source: incubated with UDP-glucose; not shown: His6, N-terminal, cleaved
B2: apo human galactose 1-phosphate uridylyltransferase (apo-hGALT) (enzyme, UniProt P07902 1-379, looked up)
chain: B1 chain
notes: human galactose 1-phosphate uridylyltransferase (GALT, EC 2.7.7.12), full length, from a cDNA clone with the p.Asn314Asp polymorphism; De-uridylylated form made by overnight incubation with 2 mM glucose 1-phosphate; source: incubated with glucose 1-phosphate; not shown: His6, N-terminal, cleaved
B3: human galactose 1-phosphate uridylyltransferase variant p.Gln188Arg, hGALT(p.Q188R) (enzyme, UniProt P07902 1-379, looked up)
chain: B1 chain with Q188R
notes: As purified only the apo enzyme was seen by mass spectrometry; not shown: His6, N-terminal, cleaved

Experiments:
[1] = target: the molecule itself; assay: crystal structure; hGALT 20 mg/ml pre-incubated with 5 mM UDP-Glc; vapour diffusion at 20 °C, 0.2 M ammonium sulphate, 30% PEG 8000; two chains in the asymmetric unit; dimer interactions analysed with PISA
[2] = target: the molecule itself; assay: small angle X-ray scattering (SAXS); HPLC-SAXS at 10 mg/ml in 10 mM HEPES pH 7.5, 150 mM NaCl, 0.5 mM TCEP; ab initio envelopes by GASBOR

Row | Protein | stoichiometry N [1] | stoichiometry N [2]
1 | B1 | 2 | –
2 | B2 | – | 2
3 | B3 | – | 2
